Data: patent publication US20240327475A1 (UNIVERSITY OF MARYLAND COLLEGE PARK, published 2024)

B2: ICAM-1 on human cells (HUVEC; human brain endothelial cells and astrocytes of the BBB model; iPS-derived neurons from a Gaucher patient) (receptor, UniProt P05362 28-532, looked up)
chain: QTSVSPSKVILPRGGSVLVTCSTSCDQPKLLGIETPLPKKELLLPGNNRKVYELSNVQEDSQPMCYSNCPDGQSTAKTFLTVYWTPERVELAPLPSWQPVGKNLTLRCQVEGGAPRANLTVVLLRGEKELKREPAVGEPAEVTTTVLVRRDHHGANFSCRTELDLRPQGLELFENTSAPYQLQTFVLPATPPQLVSPRVLEVDTQGTVVCSLDGLFPVSEAQVHLALGDQRLNPTVTYGNDSFSAKASVSVTAEDEGTQRLTCAVILGNQSQETLQTVTIYSFPAPNVILTKPEVSEGTEVTVKCEAHPRAKVTLNGVPAQPLGPRAQLLLKATPEDNGRSFSCSATLEVAGQLIHKNQTRELRVLYGPRLDERDCPGNWTWPENSQQTPMCQAWGNPLPELKCLKDGTFPLPIGESVTVTRDLEGTYLCRARSTQGEVTRKVTVNVLSPRYEIVIITVVAAAVIMGTAGLSTYLYNRQRKIKKYRLQQAQKGTPMKPNTQATPP
notes: whole, on cells; also called ICAM receptor; intercellular adhesion molecule-1

What was measured:
[1] = biological target: B2; experiment: cell-based or functional assay
[2] = biological target: T1, control non-targeted ASM (Olipudase); full recombinant ASM produced by He et al. (1999), which served as … (human, UniProt P17405 62-631); experiment: Incubation with HUVEC cells (known to express ICAM-1) for 3 h at 37° C., then fixation, permeabilization and anti-ASM + FITC-secondary antibody staining (cell association and uptake)
T1 construct: also called control ASM
T1 sequence (looked up): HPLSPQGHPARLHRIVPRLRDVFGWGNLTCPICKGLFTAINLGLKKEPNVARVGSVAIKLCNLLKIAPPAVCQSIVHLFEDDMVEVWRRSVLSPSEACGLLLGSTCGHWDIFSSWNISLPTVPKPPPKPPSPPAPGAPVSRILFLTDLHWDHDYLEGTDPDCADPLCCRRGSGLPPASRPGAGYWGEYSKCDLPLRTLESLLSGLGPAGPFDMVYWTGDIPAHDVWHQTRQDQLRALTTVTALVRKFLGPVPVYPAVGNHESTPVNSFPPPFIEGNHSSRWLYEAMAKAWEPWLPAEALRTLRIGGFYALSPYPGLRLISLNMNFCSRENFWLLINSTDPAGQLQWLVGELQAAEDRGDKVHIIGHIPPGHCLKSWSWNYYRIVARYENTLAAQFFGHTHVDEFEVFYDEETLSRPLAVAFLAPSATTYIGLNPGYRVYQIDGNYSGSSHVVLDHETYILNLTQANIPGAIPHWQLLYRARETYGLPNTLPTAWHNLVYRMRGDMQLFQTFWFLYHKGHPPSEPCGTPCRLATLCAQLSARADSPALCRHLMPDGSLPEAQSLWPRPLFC

B1: targeted fusion GCase protein J in Example 1 (human GCase with five tandem-repeats of the 2γ3 ICAM-1-targeting peptide at the amino terminus), after … (enzyme)
chain: NNQKIVNIKEKVAQIEAGGGGSGGGGSNNQKIVNIKEKVAQIEAGGGGSGGGGSNNQKIVNIKEKVAQIEAGGGGSGGGGSNNQKIVNIKEKVAQIEAGGGGSGGGGSNNQKIVNIKEKVAQIEAGGGGSGGGGSGFLGARPCIPKSFGYSSVVCVCNATYCDSFDPPTFPALGTFSRYESTRSGRRMELSMGPIQANHTGTGLLLTLQPEQKFQKVKGFGGAMTDAAALNILALSPPAQNLLLKSYFSEEGIGYNIIRVPMASCDFSIRTYTYADTPDDFQLHNFSLPEEDTKLKIPLIHRALQLAQRPVSLLASPWTSPTWLKTNGAVNGKGSLKGQPGDIYHQTWARYFVKFLDAYAEHKLQFWAVTAENEPSAGLLSGYPFQCLGFTPEHQRDFIARDLGPTLANSTHHNVRLLMLDDQRLLLPHWAKVVLTDPEAAKYVHGIAVHWYLDFLAPAKATLGETHRLFPNTMLFASEACVGSKFWEQSVRLGSWDRGMQYSHSIITNLLYHVVGWTDWNLALNPEGGPNWVRNFVDSPIIVDITKDTFYKQPMFYHLGHFSKFIPEGSQRVGLVASQKNDLDAVALMHPDGSAVVVVLNRSSKDVPLTIKDPAVGFLETISPGYSIHTYLWRRQ
modifications: pre-labeled with 125Iodine
Q: For B1, which “association to iPS-derived neurons from a Gaucher patient, fold over control non-targeted enzyme” value [1] is on record?
A: Its value is roughly 3 fold.

Q: Does B2 bind [2]?
A: Result: no binding
